Consider 58 substances from the supplement of paper PMC12042874.

± gives the uncertainty stated by the source.

A short description of this data set: amyloid nucleation score (Sup35N fusion, yeast selection) (log enrichment); library NNK1; higher = more nucleation; inactive = no reads after selection. The gist of the method: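 Using DiMSum, nucleation scores were taken as the log enrichment of output over input reads, centred on the mode score of non-aggregating sequences. The input and output reads came from Illumina sequencing of plasmid inserts, with sequences under 100 input reads excluded. The yeast were psi-negative, expressed Sup35N fused to peptides of 20 random codons, were induced with 100 μM copper sulfate for 24 hours, and were grown 7 days at 30°C on medium lacking adenine and uracil.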
The substance HLHFTILY came in with an amyloid nucleation score of 2.55 ± 0.28.

As to HLRKVGYSIYLFSR, the amyloid nucleation score turned out to be 3.83 ± 0.057.

Take HLSALLANSNLNKM: the amyloid nucleation score is -0.359 ± 0.52.

The substance HLSLVNFCMSVSLESWYEWM displayed an amyloid nucleation score of 0.819 ± 0.44.

In turn, HLSYI showed an amyloid nucleation score of -0.455 ± 1.7.

Take HLTKRGLSQTKRSAALQRVG: the amyloid nucleation score was found to be 0.514 ± 1.2.

HLYLRITTVG had an amyloid nucleation score of 1.49 ± 0.76.

In the case of HMLIFYSGLCKPSFVYYLLY, the amyloid nucleation score was found to be 1.04 ± 0.58.

Regarding HMNRVSGVMVVLSRGLAGMN, the amyloid nucleation score was found to be 2.67 ± 0.23.

In turn, HMNVPIDRSLGSFFFAKVMK came in with an amyloid nucleation score of 0.867 ± 0.2.

In the case of HMRMGLGRLVHLWYWPTRDT, the amyloid nucleation score was 0.153 ± 0.56.

HMRTNKVFPCYPWPFTYTPP: the amyloid nucleation score result is “inactive”.

In the case of HMSGFWM, the amyloid nucleation score was -0.856 ± 1.7.

HMSHMLLQIYLWLVFWSSGV yielded an amyloid nucleation score of 1.42 ± 0.66.

Take HNIKVAGQMYANKSRICTSM: the amyloid nucleation score stood at 0.412 ± 0.47.

HNWCYQNKGHVRGNKLCFRY showed an amyloid nucleation score of -0.112 ± 0.63.

In the case of HNYVGDTLGVMSCWPTTRFP, the amyloid nucleation score was found to be 0.087 ± 0.87.

As for HNYVWCSPC, the amyloid nucleation score was 7.694 ± 0.07.

HPLVGQELKDWNNELYVHVL gave an amyloid nucleation score of 0.534 ± 0.79.

HPQVTWGSRLAVNFCAWCYG displayed an amyloid nucleation score of 4.5 ± 0.054.

For HPQYMLPT, the amyloid nucleation score stood at 0.569 ± 0.32.

As to HPRMCWVPVISIIPLLSVMA, the amyloid nucleation score is 0.185 ± 0.41.

HQNRDIIMMMSFCAGNTGYK gave an amyloid nucleation score of 4.98 ± 0.12.

For the substance HQVNSGDLSNMVLCLMLIRW, the amyloid nucleation score was 1.84 ± 0.19.

Substance HRCPLTGFSSL came in with an amyloid nucleation score of 0.022 ± 0.45.

HREMMWQGKRV: the amyloid nucleation score result was “inactive”.

HRFDW returned an amyloid nucleation score of 1.07 ± 0.48.

HRILRESRAGRF: the amyloid nucleation score is -0.396 ± 0.36.

Substance HRLDLSCSWNMNKVRGDWCS displayed an amyloid nucleation score of -0.058 ± 0.27.

The substance HRQLWC showed an amyloid nucleation score of -1.96 ± 2.1.

For the substance HRRNMAKC, the amyloid nucleation score result is “inactive”.

HRSVGSRECRSSSEFYVLR returned an amyloid nucleation score of 3.77 ± 0.088.

HRTDRCVVMLHWPWIF returned an amyloid nucleation score of -0.025 ± 0.56.

Consider HSCEPVMLVLNMNR, for which the amyloid nucleation score is 8.159 ± 0.072.

In the case of HSDSNWIVDVLHSLYDKWLV, the amyloid nucleation score was 0.913 ± 0.5.

For HSFGKTFGDCYRRHSYLVNE, the amyloid nucleation score is -0.437 ± 0.41.

HSGSAE came in with an amyloid nucleation score of -1.28 ± 1.3.

HSLGLANYFTSHEGLVGTF: the amyloid nucleation score entry is “inactive”.

Substance HSLSFTNVVDTSLPLVLANF gave an amyloid nucleation score of -2.15 ± 2.4.

The substance HSNYFPKSLYVLGLFCSTVS came in with an amyloid nucleation score of 6.22 ± 0.065.

As to HSRSCKSFLI, the amyloid nucleation score result is “inactive”.

With HSSDLRAFLTDTFSRFYRIG, the amyloid nucleation score is 0.911 ± 0.8.

Substance HSTLFGSKFWGKTQHNFDS came in with an amyloid nucleation score of -0.151 ± 1.1.

Substance HSVNYTLSQVNGSGLVFRAF showed an amyloid nucleation score of 2.41 ± 0.12.

HTESRSSYGYVCPGYNLISF showed an amyloid nucleation score of 0.2 ± 0.63.

With HTFHVL, the amyloid nucleation score entry is “inactive”.

Substance HTFSRRTGAGGSAKLT gave an amyloid nucleation score of 0.972 ± 0.6.

HTKTLAFHIILTIILRCMFL came in with an amyloid nucleation score of 0.713 ± 0.34.

As for HVCEGEVVR, the amyloid nucleation score is -0.135 ± 0.37.

The substance HVGQAVSSCDSNLE returned an amyloid nucleation score of -0.365 ± 0.59.

The substance HVGRIPGEVYSLKFTGLGRY showed an amyloid nucleation score of -0.839 ± 0.95.

The substance HVHNYNFIFAVWIHP came in with an amyloid nucleation score of 5.87 ± 0.062.

HVLMLNW showed an amyloid nucleation score of 3.05 ± 0.084.

With HVNSRRVLSHFVFDCARIGT, the amyloid nucleation score was 0.592 ± 0.69.

HVPSFRFFFRDNLI: the amyloid nucleation score was found to be 0.385 ± 0.46.

HVRSWI: the amyloid nucleation score was 1.76 ± 0.76.

Consider HVVFTKMCSNTTET, for which the amyloid nucleation score was determined as 0.026 ± 0.49.

The substance HYAVGRARNLGCLDLSQ registered an amyloid nucleation score of 0.064 ± 0.48.
